Measured values: article doi:10.1101/2025.02.21.639368

Molecular target: H1 NC99 HA trimer (full-length trimeric ectodomain of H1N1 A/New Caledonia/20/1999 hemagglutinin) (influenza A virus H1N1 A/New Caledonia/20/1999)
Test: cryo-EM structure; HA NC99 and Fab mixed at a molar ratio of 1:1.5 (HA protomer:Fab), 5 min at room temperature; graphene grids, 0.01 mg/ml

## H1 NC99 HA trimer (full-length trimeric ectodomain of H1N1 A/New Caledonia/20/1999 hemagglutinin) (natural protein)
  stoichiometry N: 3
